B1: IL6R-BP088 (antibody)
chain 1: QVQLQESGPGLVKPSETLSLTCAVSGHSISHDHAWSWVRQPPGEGLEWIGFISYSGITNYNPSLQGRVTISRDNSKNTLYLQMNSLRAEDTAVYYCARSLARTTAMDYWGEGTLVTVSSASTKGPSVFPLAPSSKSTSGGTAALGCLVKDYFPEPVTVSWNSGALTSGVHTFPAVLQSSGLYSLSSVVTVPSSSLGTQTYICNVNHKPSNTKVDKKVEPKSCDKTHTCPPCPAPELLGDDSVFLFPPKPKDTLMISRTPEVTCVVVDVSHEDPEVKFNWYVDGVEVHNAKTKPREEQYNSTYRVVSVLTVLHQDWLNGKEYKCKVSNAALPKPIEKTISKAKGQPREPQVYTLPPSRDELTKNQVSLTCLVKGFYPSDIAVEWESNGQPENNYKTTPPVLDSDGSFFLYSKLTVDKSRWQQGNVFSCSVMHEALHNHYTQESLSLSP
chain 2: DIQMTQSPSSLSASVGDRVTITCRASQDISSYLNWYQQKPGKAPKLLIYYTSRLHSGVPSRFSGSGSGTDFTFTISSLQPEDIATYYCQQGNTLPYTFGQGTKVEIK
B2: IL6R-BP086 (antibody)
chain 1: QVQLQESGPGLVKPSETLSLTCAVSGHSISHDHAWSWVRQPPGEGLEWIGFISYSGITNYNPSLQGRVTISRDNSKNTLYLQMNSLRAEDTAVYYCARSLARTTAMDYWGEGTLVTVSSASTKGPSVFPLAPSSKSTSGGTAALGCLVKDYFPEPVTVSWNSGALTSGVHTFPAVLQSSGLYSLSSVVTVPSSSLGTQTYICNVNHKPSNTKVDKKVEPKSCDKTHTCPPCPAPELLGGDSVFLFPPKPKDTLMISRTPEVTCVVVDVSHEDPEVKFNWYVDGVEVHNAKTKPREEQYNSTYRVVSVLTVLHQDWLNGKEYKCKVSNAALPKPIEKTISKAKGQPREPQVYTLPPSRDELTKNQVSLTCLVKGFYPSDIAVEWESNGQPENNYKTTPPVLDSDGSFFLYSKLTVDKSRWQQGNVFSCSVMHEALHNHYTQESLSLSP
chain 2: DIQMTQSPSSLSASVGDRVTITCRASQDISSYLNWYQQKPGKAPKLLIYYTSRLHSGVPSRFSGSGSGTDFTFTISSLQPEDIATYYCQQGNTLPYTFGQGTKVEIK
B3: IL6R-BP181 (antibody)
chain 1: QVQLQESGPGLVKPSETLSLTCAVSGHSISHDHAWSWVRQPPGEGLEWIGFISYSGITNYNPSLQGRVTISRDNSKNTLYLQMNSLRAEDTAVYYCARSLARTTAMDYWGEGTLVTVSSASTKGPSVFPLAPSSKSTSGGTAALGCLVKDYFPEPVTVSWNSGALTSGVHTFPAVLQSSGLYSLSSVVTVPSSSLGTQTYICNVNHKPSNTKVDKKVEPKSCDKTHTCPPCPAPDLLGGDSVFLFPPKPKDTLMISRTPEVTCVVVDVSHEDGEVKFNWYVDGVEVHNAKTKPREEQYNSTYRVVSVLTVLHQDWLNGKEYKCKVSNAALPKPIEKTISKAKGQPREPQVYTLPPSRDELTKNQVSLTCLVKGFYPSDIAVEWESNGQPENNYKTTPPVLDSDGSFFLYSKLTVDKSRWQQGNVFSCSVMHEALHNHYTQESLSLSP
chain 2: DIQMTQSPSSLSASVGDRVTITCRASQDISSYLNWYQQKPGKAPKLLIYYTSRLHSGVPSRFSGSGSGTDFTFTISSLQPEDIATYYCQQGNTLPYTFGQGTKVEIK
B4: IL6R-BP132 (antibody)
chain 1: QVQLQESGPGLVKPSETLSLTCAVSGHSISHDHAWSWVRQPPGEGLEWIGFISYSGITNYNPSLQGRVTISRDNSKNTLYLQMNSLRAEDTAVYYCARSLARTTAMDYWGEGTLVTVSSASTKGPSVFPLAPSSKSTSGGTAALGCLVKDYFPEPVTVSWNSGALTSGVHTFPAVLQSSGLYSLSSVVTVPSSSLGTQTYICNVNHKPSNTKVDKKVEPKSCDKTHTCPPCPAPDLLGGDSVFLFPPKPKDTLMISRTPEVTCVVVDVSHEDPEVKFNWYVDGVEVHNAKTKPREEQYNSTYRVVSVLTVLHQDWLNGKEYKCKVSNAALPKPIEKTISKAKGQPREPQVYTLPPSRDELTKNQVSLTCLVKGFYPSDIAVEWESNGQPENNYKTTPPVLDSDGSFFLYSKLTVDKSRWQQGNVFSCSVMHEALHNHYTQESLSLSP
chain 2: DIQMTQSPSSLSASVGDRVTITCRASQDISSYLNWYQQKPGKAPKLLIYYTSRLHSGVPSRFSGSGSGTDFTFTISSLQPEDIATYYCQQGNTLPYTFGQGTKVEIK
B5: IL6R-BP151 (antibody)
chain 1: QVQLQESGPGLVKPSETLSLTCAVSGHSISHDHAWSWVRQPPGEGLEWIGFISYSGITNYNPSLQGRVTISRDNSKNTLYLQMNSLRAEDTAVYYCARSLARTTAMDYWGEGTLVTVSSASTKGPSVFPLAPSSKSTSGGTAALGCLVKDYFPEPVTVSWNSGALTSGVHTFPAVLQSSGLYSLSSVVTVPSSSLGTQTYICNVNHKPSNTKVDKKVEPKSCDKTHTCPPCPAPDYLGDDSVFLFPPKPKDTLMISRTPEVTCVVVDVSHEDPEVKFNWYVDGVEVHNAKTKPREEQYNSTYRVVSVLTVLHQDWLNGKEYKCKVSNAALPKPIEKTISKAKGQPREPQVYTLPPSRDELTKNQVSLTCLVKGFYPSDIAVEWESNGQPENNYKTTPPVLDSDGSFFLYSKLTVDKSRWQQGNVFSCSVMHEALHNHYTQESLSLSP
chain 2: DIQMTQSPSSLSASVGDRVTITCRASQDISSYLNWYQQKPGKAPKLLIYYTSRLHSGVPSRFSGSGSGTDFTFTISSLQPEDIATYYCQQGNTLPYTFGQGTKVEIK
B6: IL6R-BP176 (antibody)
chain 1: QVQLQESGPGLVKPSETLSLTCAVSGHSISHDHAWSWVRQPPGEGLEWIGFISYSGITNYNPSLQGRVTISRDNSKNTLYLQMNSLRAEDTAVYYCARSLARTTAMDYWGEGTLVTVSSASTKGPSVFPLAPSSKSTSGGTAALGCLVKDYFPEPVTVSWNSGALTSGVHTFPAVLQSSGLYSLSSVVTVPSSSLGTQTYICNVNHKPSNTKVDKKVEPKSCDKTHTCPPCPAPDLLGGDSVFLFPPKPKDTLMISRTPEVTCVVVDVSHEDPEVKFNWYVDGVEVHNAKTKPREEQYNSTYRVVSVLTVLHQDWLNGKEYKCKVSNDALPKPIEKTISKAKGQPREPQVYTLPPSRDELTKNQVSLTCLVKGFYPSDIAVEWESNGQPENNYKTTPPVLDSDGSFFLYSKLTVDKSRWQQGNVFSCSVMHEALHNHYTQESLSLSP
chain 2: DIQMTQSPSSLSASVGDRVTITCRASQDISSYLNWYQQKPGKAPKLLIYYTSRLHSGVPSRFSGSGSGTDFTFTISSLQPEDIATYYCQQGNTLPYTFGQGTKVEIK
B7: IL6R-BP148 (antibody)
chain 1: QVQLQESGPGLVKPSETLSLTCAVSGHSISHDHAWSWVRQPPGEGLEWIGFISYSGITNYNPSLQGRVTISRDNSKNTLYLQMNSLRAEDTAVYYCARSLARTTAMDYWGEGTLVTVSSASTKGPSVFPLAPSSKSTSGGTAALGCLVKDYFPEPVTVSWNSGALTSGVHTFPAVLQSSGLYSLSSVVTVPSSSLGTQTYICNVNHKPSNTKVDKKVEPKSCDKTHTCPPCPAPDYLGDDSVFLFPPKPKDTLMISRTPEVTCVVVDVSHEDPEVKFNWYVDGVEVHNAKTKPREEQYNSTYRVVSVLTVLHQDWLNGKEYKCKVSNAALPKPIEKTISKAKGQPREPQVYTLPPSRDELTKNQVSLTCLVKGFYPSDIAVEWESNGQPENNYKTTPPVLDSDGSFFLYSKLTVDKSRWQQGNVFSCSVMHEALHNHYTQESLSLSP
chain 2: DIQMTQSPSSLSASVGDRVTITCRASQDISSYLNWYQQKPGKAPKLLIYYTSRLHSGVPSRFSGSGSGTDFTFTISSLQPEDIATYYCQQGNTLPYTFGQGTKVEIK

Assays:
Experiment in all cases: SPR
human FcgRIIa(R) = biological target: T1, human FcgRIIa(R) (human)
T1 chain: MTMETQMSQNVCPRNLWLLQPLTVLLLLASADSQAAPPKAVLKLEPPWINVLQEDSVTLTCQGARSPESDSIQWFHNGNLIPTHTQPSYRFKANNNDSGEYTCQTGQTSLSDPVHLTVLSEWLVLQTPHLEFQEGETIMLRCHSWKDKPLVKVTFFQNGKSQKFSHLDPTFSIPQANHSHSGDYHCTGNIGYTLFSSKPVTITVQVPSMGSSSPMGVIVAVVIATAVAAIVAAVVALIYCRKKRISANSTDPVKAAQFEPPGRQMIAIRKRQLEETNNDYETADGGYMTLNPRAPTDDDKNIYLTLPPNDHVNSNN

human FcgRIIb = biological target: T2, human FcgRIIb (human)
T2 chain: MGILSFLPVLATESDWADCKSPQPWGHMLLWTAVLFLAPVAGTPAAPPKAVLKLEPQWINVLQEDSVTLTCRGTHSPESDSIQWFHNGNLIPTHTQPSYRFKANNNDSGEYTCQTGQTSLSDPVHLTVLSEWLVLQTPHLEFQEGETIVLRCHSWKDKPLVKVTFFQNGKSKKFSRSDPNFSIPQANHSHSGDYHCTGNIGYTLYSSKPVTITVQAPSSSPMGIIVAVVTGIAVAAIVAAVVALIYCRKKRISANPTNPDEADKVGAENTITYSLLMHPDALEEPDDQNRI

human FcgRIa = human FcgRIa (human)
human FcgRIa (human), sequence (chain, as listed by the source): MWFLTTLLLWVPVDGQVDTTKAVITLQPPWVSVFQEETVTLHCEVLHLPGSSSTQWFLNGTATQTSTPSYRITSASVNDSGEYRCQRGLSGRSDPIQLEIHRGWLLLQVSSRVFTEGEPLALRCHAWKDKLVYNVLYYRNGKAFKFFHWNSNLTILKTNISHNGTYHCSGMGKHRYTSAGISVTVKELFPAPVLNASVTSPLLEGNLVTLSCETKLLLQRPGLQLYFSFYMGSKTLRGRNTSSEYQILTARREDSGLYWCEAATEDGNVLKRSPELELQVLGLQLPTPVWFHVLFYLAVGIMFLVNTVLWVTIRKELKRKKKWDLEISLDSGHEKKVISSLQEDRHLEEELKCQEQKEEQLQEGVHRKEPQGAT

Binder	Kd (human FcgRIIa(R))	Kd (human FcgRIIb)	Kd (human FcgRIa)
B1	2900 nM	220 nM	300 nM
B2	9700 nM	570 nM	27 nM
B3	3200 nM	160 nM	7.5 nM
B4	8000 nM	270 nM	1.5 nM
B5	670 nM	40 nM	84 nM
B6	6900 nM	360 nM	7.3 nM
B7	1100 nM	75 nM	89 nM

From US10618965 (dated 2020)
